Reference: patent publication US20090062150A1 (published 2009)

Biological target: T1, 7-mer (AGAIAGG) derived from Toxoplasma gondii micronemal proteins (MIC2) (Toxoplasma gondii)
T1 construct: also called MIC2 peptide; MC2
Test: crystal soak, X-ray structure

B1: N-terminally truncated GlpG transmembrane core domain (residues 87-276), E. coli rhomboid protease (enzyme)
chain: AALRERAGPVTWVMMIACVVVFIAMQILGDQEVMLWLAWPFDPTLKFEFWRYFTHALMHFSLMHILFNLLWWWYLGGAVEKRLGSGKLIVITLISALLSGYVQQKFSGPWFGGLSGVVYALMGYVWLRGERDPQSGIYLQRGLIIFALIWIVAGWFDLFGMSMANGAHIAGLAVGLAMAFVDSLNARKRK
notes: range 87-276; also called GlpG core; truncated GlpG core domain
binding result: binds
